In patent US20230192857A1 (published 2023) one finds Kd data, which are given here for three molecules.

Read-outs that look alike come from different tables or passages of the source. Non-standard residues stand in square brackets, D forms with d. No end group written: not given here. pY = N[C@@H](Cc1ccc(OP(=O)(O)O)cc1)C(=O)O

The target in assay [1] is T1, hCIS-SH2-BC complex (recombinant trimeric complex of human GST-CIS-SH2 construct with Elongins B and C) (UniProt Q9NSE2 66-258; Q15370 1-118; Q15369 17-112). The experiment in a line: ITC. In general terms: In ITC the heat of successive injections is recorded.
Assay [2] concerns the target T1, hCIS-SH2-BC complex (recombinant …). The experiment in a line: ITC. The source holds these as a separate data set.

As to EIEACQV[pY]FTYDPYSE [phosphopeptide corresponding to Tyr355 within the IL-2Rβ (printed 'IL-2R13') cytoplasmic domain], the dissociation constant Kd in assay [1] and in assay [2] was 0.94 µM throughout.
On to LSGEDDA[pY]CTFPSRDD [phosphopeptide corresponding to Tyr392 within the IL-2Rβ (printed 'IL-2R13') cytoplasmic domain], for which the Kd in assay [1] and in assay [2] was 1.8 µM in each case.
VYFTYDP[pY]SEEDPDEG [phosphopeptide corresponding to Tyr361 within the IL-2Rβ (printed 'IL-2R13') cytoplasmic domain]: the Kd in assay [1] and in assay [2] was 1.5 µM each time.

Broadly, the Kd is the free concentration of one partner at which half of the binding sites on the other are occupied at equilibrium, for simple one-to-one binding.
